Results from PMC3719020.

Key:
Pelota = Pelota (UniProt Q9BRX2); assay: pull-down; 800 μl RRL incubated with 200 μl of Pelota resin (Pelota immobilized via CnBr); unconjugated quenched CnBr resin as control; depleted lysate blotted for Hbs1
[1] = target: β-VHP ribosome-nascent chain complexes (RNCs) (not stated | rabbit (endogenous in reticulocyte lysate)) (UniProt P60468)
[2] = target: 60S-nascent chain-tRNA complex (β-VHP) (not stated | rabbit (endogenous in reticulocyte lysate)) (UniProt P60468)

Chain of UniProt Q9BRX2 (Q9BRX2 whole entry): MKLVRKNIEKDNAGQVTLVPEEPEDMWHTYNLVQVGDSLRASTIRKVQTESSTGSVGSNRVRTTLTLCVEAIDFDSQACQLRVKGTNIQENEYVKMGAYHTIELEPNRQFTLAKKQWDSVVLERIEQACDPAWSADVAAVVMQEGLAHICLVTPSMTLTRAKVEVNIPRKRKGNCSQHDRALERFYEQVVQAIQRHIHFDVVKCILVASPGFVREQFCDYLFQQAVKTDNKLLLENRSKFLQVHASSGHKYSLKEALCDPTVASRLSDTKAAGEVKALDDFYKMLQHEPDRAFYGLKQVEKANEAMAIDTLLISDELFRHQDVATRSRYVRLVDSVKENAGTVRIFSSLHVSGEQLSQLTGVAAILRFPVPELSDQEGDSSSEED

Hbs1 (enzyme)
percent of Hbs1 depleted from the lysate by the Pelota resin (Pelota): 80 to 90%

Listerin (enzyme)
inhibition of β-VHP nascent chain ubiquitination by the GTPase mutant Hbs1 H348A (Hbs1-DN) added to the translation reaction [1]: 90%
inhibition of β-VHP nascent chain ubiquitination by the GTPase mutant Hbs1 V269G added to the translation reaction [1]: 60%
nascent chain ubiquitination of sucrose gradient fractions incubated with E1, E2, ubiquitin and ATP; 60S-nascent chain complexes against 80S RNCs [2]: 10 fold
